This note sets out measurements from paper PMC4241043.

Assay [1] deals with protein FAF (F. magna adhesion factor), recombinant, amino acids 28-616 (F. magna). The assay is described as follows: SPR.
Assay [2] addresses FAF-expressing strains (ALB8, L3410, 1462 and 2133). Kind of assay: radioligand binding.
For assay [3], the target named is protein FAF on the surface of F. magna strain ALB8 (F. magna (endogenous in strain ALB8)). The assay is described as follows: radioligand binding.

Chain of galectin-7 (P47929 whole entry): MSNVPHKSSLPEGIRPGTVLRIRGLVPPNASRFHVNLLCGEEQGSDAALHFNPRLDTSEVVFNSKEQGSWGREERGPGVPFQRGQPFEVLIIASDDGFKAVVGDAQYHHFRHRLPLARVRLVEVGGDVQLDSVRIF

In general, Kd refers to the free concentration of one partner at which half of the binding sites on the other are occupied at equilibrium, for simple one-to-one binding. As to “galectin-7 (from UniProt P47929 1-136) (natural protein)”, the equilibrium dissociation constant (Kd) in assay [1] worked out at 0.53 nM. Besides, in assay [2], the percent of added radiolabelled galectin-7 bound is 20 to 30%.
In assay [3], “rF16, N-terminal half of fibrillin-1 (domain or fragment)” showed a percent binding of 125I-labelled fragment of 24%.
Still for that read-out and setting: the same measure for “rFBN2-2, N-terminal half of fibrillin-2 (domain or fragment)”: 17%.
